Assay [1] addresses HLA-A*02:01. The assay can be described thus: IEDB peptide-MHC binding, purified MHC/competitive/fluorescence; filed as Kd, often an IC50 or EC50 that approximates it; ≥ and ≤ were set here for values at or beyond the usual limits of such assays.
The target of assay [2] is HLA-A*02:01. The assay can be described thus: IEDB peptide-MHC binding, purified MHC/competitive/radioactivity; filed as Kd, often an IC50 or EC50 that approximates it; ≥ and ≤ were set here for values at or beyond the usual limits of such assays.
A further assay addresses HLA-A*24:02. The assay is described as above.
A further assay concerns the target HLA-A*01:01. The assay is described as above.
The target in a further assay is HLA-A*26:01. Described as above.
Another assay has as its target HLA-A*23:01. Described as above.
For a further assay, the target named is HLA-A*30:02. The assay is described as above.
The next assay has as its target HLA-A*29:02. Described as above.
Another assay addresses HLA-B*40:01. The assay is described as above.
For another assay, the target named is HLA-B*44:02. The description is as above. Particulars: source organism: Dengue virus 1 Brazil/97-11/1997.
For another assay, the target named is HLA-B*44:03. The description is as above.
The target in another assay is HLA-B*07:02. Described as above. Conditions: source organism: Dengue virus 2 Jamaica/1409/1983.
A further assay concerns the target HLA-B*53:01. The assay is described as above. Conditions: source organism: Dengue virus 2 Jamaica/1409/1983.
A further assay deals with HLA-B*51:01. The description is as above.
The next assay has as its target HLA-A*30:01. Described as above.
In the next assay the target is HLA-A*32:01. The description is as above.
Where [3] appears, read: source organism: Lassa virus Josiah.
Setting [4] is: source organism: SARS coronavirus Tor2.
The mark [5] stands for this setting: source organism: Dengue virus 1 Brazil/97-11/1997.
Where [6] appears, read: source organism: Dengue virus 2 Jamaica/1409/1983.
Where [7] appears, read: source organism: Mammarenavirus choriomeningitidis.
Setting [8] is: source organism: Lymphocytic choriomeningitis virus (strain Armstrong).
The mark [9] stands for this setting: source organism: Mammarenavirus brazilense.
[10] abbreviates: source organism: Dengue virus 3 Martinique/1243/1999.

pKd: −log10 of the molar value.

Our source for the Kd values is the Immune Epitope Database (IEDB).

In the assay with HLA-A*02:01 [1] (source organism: Plasmodium falciparum), LLMDCSGSI gave a pKd of 8.89.
Take ATQPGLTSAV: the pKd with HLA-A*02:01 [2] (setting [3]) was at most 4.60.
Sequence ALFYKDGKL showed a pKd in the assay with HLA-A*02:01 [1] (source organism: Variola major virus) of 6.27.
As for MLWTTDKHV, the pKd with HLA-A*02:01 [1] (source organism: Human alphaherpesvirus 1 strain 17) is 5.89.
With WFSQRGGSY, the pKd with HLA-A*24:02 (setting [4]) was at most 4.20; with HLA-A*01:01 (setting [4]), 6.74; with HLA-A*26:01 (setting [4]), 5.67; in the assay with HLA-A*23:01 (setting [4]) it was at most 4.11; in the assay with HLA-A*30:02 (setting [4]), 7.96; in the assay with HLA-A*29:02 (setting [4]) it was 9.07.
With SEMAEALKGM, the negative logarithm of the Kd (pKd) is 6.21 in the assay with HLA-B*40:01 (setting [5]), 7.17 with HLA-B*44:02 and 7.65 with HLA-B*44:03 (setting [5]).
VPSIKAGNDI: the values for the negative-log Kd (pKd) in the assay with HLA-B*07:02, with HLA-B*53:01 and in the assay with HLA-B*51:01 (setting [6]) were 5.67, at most 4.22 and 5.07, respectively.
On to QLQSPGVADY, for which the pKd was 6.54 in the assay with HLA-A*01:01 (setting [7]); 5.11 in the assay with HLA-A*26:01 (setting [7]); 7.37 in the assay with HLA-A*30:02 (setting [7]); at most 4.15 with HLA-A*30:01 (setting [7]); at most 4.16 in the assay with HLA-A*32:01 (setting [7]); at most 4.60 with HLA-A*29:02 (setting [7]).
On to ASLGPLRETY, for which the pKd is at most 4.15 in the assay with HLA-A*24:02 (setting [4]); at most 3.94 in the assay with HLA-A*01:01 (setting [4]); at most 4.09 in the assay with HLA-A*26:01 (setting [4]); at most 4.15 with HLA-A*23:01 (setting [4]); 6.81 in the assay with HLA-A*30:02 (setting [4]); 6.25 with HLA-A*29:02 (setting [4]).
Take VPLLALGCY: in the assay with HLA-B*51:01 (setting [5]), the pKd was 4.83.
Consider KCWLVTNGSY, for which the pKd in the assay with HLA-A*24:02 (setting [8]) was at most 4.15; in the assay with HLA-A*01:01 (setting [8]) it was 4.76; in the assay with HLA-A*26:01 (setting [8]), at most 4.16; with HLA-A*23:01 (setting [8]), at most 4.15; with HLA-A*30:02 (setting [8]), 7.56; in the assay with HLA-A*29:02 (setting [8]) it was 6.03.
Take LLNATDIAVA: in the assay with HLA-A*02:01 [2] (source organism: Human immunodeficiency virus 1), the pKd is 6.37.
With LEHGSCVTTM, the pKd with HLA-B*40:01 (setting [6]) was 7.19; with HLA-B*44:03 (setting [6]), 5.97.
On to EALRGFLLY, for which the pKd was 5.43 in the assay with HLA-A*01:01 (setting [9]); 5.80 in the assay with HLA-A*26:01 (setting [9]); 5.64 with HLA-A*30:02 (setting [9]); 5.24 with HLA-A*30:01 (setting [9]); at most 4.22 in the assay with HLA-A*32:01 (setting [9]); 6.93 in the assay with HLA-A*29:02 (setting [9]).
In the case of NEGVMAVGL, the pKd with HLA-B*40:01 (setting [10]) was 6.65; in the assay with HLA-B*44:03 (setting [10]) it was 5.74.
With ELTLTNTSI, the pKd with HLA-A*02:01 [2] (setting [3]) is 4.90.
On to WPISKMDIGV, for which, in the assay with HLA-B*51:01 (source organism: Dengue virus 1 Singapore/S275/1990), the pKd is 4.97.
As to KMTLFKSIL, in the assay with HLA-A*02:01 [1] (source organism: Vaccinia virus WR), the negative-log Kd (pKd) is 5.89.
In the assay with HLA-A*02:01 [1] (source organism: Vaccinia virus Ankara), RTCSNWVPL showed a pKd of 6.48.
Regarding SSPDAVTTY, the negative logarithm of the Kd (pKd) was at most 4.11 with HLA-A*24:02 (setting [4]); 5.26 with HLA-A*01:01 (setting [4]); 5.01 in the assay with HLA-A*26:01 (setting [4]); at most 4.11 with HLA-A*23:01 (setting [4]); 5.48 with HLA-A*30:02 (setting [4]); at most 4.67 with HLA-A*29:02 (setting [4]).
For the sequence AACRAAGL, the pKd with HLA-A*02:01 [2] (source organism: Hepatitis C virus (isolate 1)) was at most 4.30.
Consider NAWKVSCTI, for which the pKd with HLA-B*53:01 is 7.44; in the assay with HLA-B*51:01 (setting [6]) it was 7.26.

As a reminder, the pKd is −log10 of the Kd, conventionally taken in molar units.
